Experimental data reported in patent US20240325557A1, “TREATMENT OF CANCER” (INNATE PHARMA, priority 2020, published 2024).
Residue numbers refer to the chain shown, from its start. Entries after “also recorded” stand apart in the source; their conditions may differ.

B1: 5E7 (antibody, V domains shown)
VH: QVQLQQPGAELVKPGASVKLSCKASGYIFTSYWMHWVKQRPGQGLEWIGEIDPSDSYTNYNQKFKGKATLTLDKSSSTTYMQLSSLTSEDSAVYYCVRGYGNYGDYWGQGTTLTVSS
VL: DVVMTQAAFSNPVTLGTSASISCRSSKSLLHSNGITYLYWYLQKPGQSPQLLIYQMSNLASGVPDRFSSSGSGTDFTLRISRVEAEDVGVYYCAQNLELPWTFGGGTKLEIK
B2: 10B12: anti-Nectin-4 antibody, VH SEQ ID NO: 24, VL SEQ ID NO: 25, binds junction of domain C1 and V (antibody, listed as Mus musculus, V domains shown)
VH: B1 VH with I28T, L72V, T79A
VL: B1 VL with V2I
B3: N41 (antibody, V domains shown)
VH: QVQLKQSGPGLVQPSQSLSITCTVSGFSLTNYGVHWVRQSPGKGLEWLGVIWSGGSTDYNAAFISRLSISKDTSKSQVFFKMNSLQADDTAIYYCARELIHAMDNWGQGTSVTVSS
VL: DIQMTQSPASLSVSVGETVTITCRASENIYSNLAWYQQKQGNSPQLLVFAATNLADGVPSRFSGSGSGTQYSLKINSLQSEDFGTYYCQHFWGTPTFGGGTKLEIK

What was measured:
[1] = target: T1, wild-type human Nectin-4 (Homo sapiens, UniProt Q96NY8); assay: Flow cytometry binding to wild-type Nectin-4 expressing CHO cells
T1 construct: expressed in transfected cells; host or cells: CHO (huNectin4 Cl.3C8)
T1 sequence (Q96NY8 32-510): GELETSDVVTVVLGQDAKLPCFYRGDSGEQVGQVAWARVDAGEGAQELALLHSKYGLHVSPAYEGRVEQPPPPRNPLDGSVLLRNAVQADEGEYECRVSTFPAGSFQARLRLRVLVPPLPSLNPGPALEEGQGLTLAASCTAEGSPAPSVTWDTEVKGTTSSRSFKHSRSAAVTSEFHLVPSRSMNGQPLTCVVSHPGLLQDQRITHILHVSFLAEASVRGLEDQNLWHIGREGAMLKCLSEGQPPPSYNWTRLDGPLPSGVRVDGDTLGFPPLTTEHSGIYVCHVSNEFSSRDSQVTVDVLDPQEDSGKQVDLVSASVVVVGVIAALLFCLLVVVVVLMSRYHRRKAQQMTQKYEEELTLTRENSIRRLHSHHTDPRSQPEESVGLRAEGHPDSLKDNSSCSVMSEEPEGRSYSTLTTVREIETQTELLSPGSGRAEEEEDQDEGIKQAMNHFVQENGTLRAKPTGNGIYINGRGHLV
Protocol: plates of hybridoma supernatants were tested for binding on the wild-type human Nectin-4 expressing CHO cell line by flow cytometry. Briefly, Nectin-4 expressing cells were used at 0.2×10^6 cells by well in a buffer of PBS, BSA 0.5%, EDTA 5 mM. The first antibody was incubated with cells for 1h at +5±3° C. in 50 μL of supernatant. […] Acquisition HTFC flow cytometer (Intellicyt), with data analysis on ForeCyt™ software.
(§1) The characterization of the binding of the antibodies on Nectin-4 domains was performed by flow cytometry using cells made to express the wild-type human Nectin-4 protein and cells made to express a modified Nectin-4 having the Ig-like C2 type 1 and the Ig-like C2 type 2 domains and lacking the Ig-like V domain (the C1C2 construct). The latter protein additionally bears a V5 tag for flow cytometry cell sorting, and cells were used as Nectin4-C1C2-V5 sorted cells.
Wild-type Nectin-4 (the CI.3C8 cell line), a C2 construct (containing the Ig-like C2 type 2 domain and lacking both the V and the C1 domains) and the C1C2 construct allow the determination of whether test antibodies bind to the V or different C domains. Briefly, nucleic acid sequences encoding different human Nectin-4 domains were amplified by PCR. The PCR products were inserted into an expression vector at appropriate restriction sites. […] The amino acid sequences of the resulting different human Nectin-4 domain fragment-containing proteins are shown below (V5 tag underlined). The vectors were then transfected into the CHO cell line to obtain stable clones expressing the different Nectin-4 domain proteins at the cell surface.

[2] = target: T2, wild-type human Nectin-4 protein (huNectin4-his-BirA) (Homo sapiens, UniProt Q96NY8); assay: Affinity determination by SPR (Biacore T200); type: binding; conditions: 25° C.
T2 sequence (Q96NY8 with tags, fused parts or gaps): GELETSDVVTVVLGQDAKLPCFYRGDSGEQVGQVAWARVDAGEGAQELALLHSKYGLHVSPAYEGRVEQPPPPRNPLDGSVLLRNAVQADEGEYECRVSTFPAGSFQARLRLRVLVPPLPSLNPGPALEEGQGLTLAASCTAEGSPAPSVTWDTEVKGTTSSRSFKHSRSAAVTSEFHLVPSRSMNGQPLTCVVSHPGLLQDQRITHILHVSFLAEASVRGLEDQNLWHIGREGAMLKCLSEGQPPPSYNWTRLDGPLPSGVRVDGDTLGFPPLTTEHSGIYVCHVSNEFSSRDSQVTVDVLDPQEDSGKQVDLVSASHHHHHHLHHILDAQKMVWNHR
Protocol: Antibodies were tested for binding affinity to the wild-type human Nectin-4 protein by SPR (Surface Plasmon Resonance) methods. Measurements were performed on a Biacore T200 apparatus (Biacore GE Healthcare) at 25° C. Sensorgrams were analyzed with Biacore T100 Evaluation software. A CMR Sensor Chip with immobilized Protein A at about 600 RU was used. Anti-Nectin-4 antibodies were captured onto the Protein-A chip (antibodies diluted to 1 μg/ml in HBS-EP+1× buffer and injected over 120s at 40 μL/min). Recombinant human monomeric huNectin4-his-BirA protein was injected at different concentrations in a range from 100 nM to 1.56 nM over captured antibodies (HuNectin4-His-BirA diluted in HBS-EP+1× in ½ dilutions, injected over 120s at 40 μl/min) and allowed to dissociate for 600s. The chip was regenerated with NaOh 10 mM 2× for 30s at 40 μl/min. The sensorgram sets were fitted using the 1:1 kinetic binding model or two state reaction model, as a function of the profile of the curves.

[3] = target: T3, Hu-Nectin4 IgC1C2-V5 (modified Nectin-4 lacking the Ig-like V domain, C1C2 construct) (Homo sapiens, UniProt Q96NY8); assay: Flow cytometry binding to cells expressing the Nectin-4 C1C2 construct
T3 construct: expressed in transfected cells; host or cells: CHO
T3 sequence (Q96NY8 148-510): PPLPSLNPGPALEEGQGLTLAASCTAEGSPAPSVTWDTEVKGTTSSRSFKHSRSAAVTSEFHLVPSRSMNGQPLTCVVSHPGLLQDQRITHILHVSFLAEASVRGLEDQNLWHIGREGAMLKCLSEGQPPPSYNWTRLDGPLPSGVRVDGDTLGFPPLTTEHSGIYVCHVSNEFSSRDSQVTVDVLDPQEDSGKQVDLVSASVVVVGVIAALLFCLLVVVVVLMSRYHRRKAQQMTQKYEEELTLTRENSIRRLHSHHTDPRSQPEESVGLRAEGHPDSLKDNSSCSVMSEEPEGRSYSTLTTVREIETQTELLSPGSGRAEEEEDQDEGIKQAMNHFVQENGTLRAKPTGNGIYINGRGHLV
Protocol: as §1
Wild-type Nectin-4 (the CI.3C8 cell line), a C2 construct (containing the Ig-like C2 type 2 domain and lacking both the V and the C1 domains) and the C1C2 construct allow the determination of whether test antibodies bind to the V or different C domains. Briefly, nucleic acid sequences encoding different human Nectin-4 domains were amplified by PCR. The PCR products were inserted into an expression vector at appropriate restriction sites. A leader peptide, and for C1C2 and C2 an N-terminal V5 tag having the amino acid sequence […] (SEQ ID NO: 41), were added, and expression at the surface of cells was confirmed by flow cytometry. The amino acid sequences of the resulting different human Nectin-4 domain fragment-containing proteins are shown below (V5 tag underlined). The vectors were then transfected into the CHO cell line to obtain stable clones expressing the different Nectin-4 domain proteins at the cell surface.

Molecule	binding to whole (wild-type) human Nectin-4 protein [1]	ka [2] [M⁻¹ s⁻¹]	kd [2] [s⁻¹]	binding to the C1C2 construct [3]
B1	lower plateau	620000	0.003	partial loss of binding to the C1C2 construct; also recorded: retain binding to the C1C2 construct
B2	lower plateau	860000	0.01	partial loss of binding to the C1C2 construct; also recorded: retain binding to the C1C2 construct
B3	bound to the whole Nectin-4 protein	580000	0.00087	lost all binding to the C1C2 construct
